Results: patent publication US9993529B2, “Stable formulations of a hyaluronan-degrading enzyme” (Halozyme, Inc., priority 2011, dated 2018)

Test: RP-HPLC insulin apparent solubility / percent recovery (content)
Conditions: 7 days at 2-8° C.
Procedure: Apparent solubility was measured as the percent insulin recovery as compared to the initial formulations/conditions.
Samples were prepared by withdrawing 100 μL from each vial at every time point and centrifuging prior to loading. Samples were stored in an autosampler at 4° C. prior to use, and were considered stable for 3 days after preparation. All samples were tested in duplicate.
For insulin, 20 μL was injected for each HPLC run.
To determine the apparent solubility, the peak area of insulin/insulin analog main peak and desamido peak were integrated and combined together to calculate the percentage relative to the standards. […] The data were processed using Design-Expert® 7.0 (StatEase) and the “historical data” feature. Insulin percent purity was expressed as the percent of main insulin versus all insulin species.

Regular Insulin: mature human insulin, SEQ ID NOS: 103 and 104
Solubility of regular Insulin (0.2% methylparaben + […] m-cresol, pH 6.6, NaCl 50 mM): 15.3%
Solubility of regular Insulin (0.2% methylparaben + […] m-cresol, pH 6.6, NaCl 80 mM): 9.0%
Solubility of regular Insulin (0.2% methylparaben + […] m-cresol, pH 6.6, NaCl 140 mM): 5.8%
Solubility of regular Insulin (0.2% methylparaben + […] m-cresol, pH 6.8, NaCl 50 mM): 34.1%
Solubility of regular Insulin (0.2% methylparaben + […] m-cresol, pH 6.8, NaCl 110 mM): 11.4%
Solubility of regular Insulin (0.2% methylparaben + […] m-cresol, pH 7.0, NaCl 50 mM): 86.9%
Solubility of regular Insulin (0.2% methylparaben + […] m-cresol, pH 7.0, NaCl 80 mM): 46.6%
Solubility of regular Insulin (0.2% methylparaben + […] m-cresol, pH 7.0, NaCl 140 mM): 15.9%
Solubility of regular Insulin (0.2% methylparaben + […] m-cresol, pH 7.2, NaCl 80 mM): 90.6%
Solubility of regular Insulin (0.2% methylparaben + […] m-cresol, pH 7.2, NaCl 110 mM): 47.1%
Solubility of regular Insulin (0.2% methylparaben + […] m-cresol, pH 7.2, NaCl 140 mM): 32.9%
Solubility of regular Insulin (0.2% methylparaben + […] m-cresol, pH 7.4, NaCl 50 mM): 98.1%
Solubility of regular Insulin (0.2% methylparaben + […] m-cresol, pH 7.4, NaCl 80 mM): 97.7%
Solubility of regular Insulin (0.2% methylparaben + […] m-cresol, pH 7.4, NaCl 110 mM): 94.6%
Solubility of regular Insulin (0.2% methylparaben + […] m-cresol, pH 7.4, NaCl 140 mM): 59.1%
Solubility of regular Insulin (0.2% methylparaben + […] m-cresol, pH 7.6, NaCl 50 mM): 98.1%
Solubility of regular Insulin (0.2% methylparaben + […] m-cresol, pH 7.6, NaCl 80 mM): 97.9%
Solubility of regular Insulin (0.2% methylparaben + […] m-cresol, pH 7.6, NaCl 140 mM): 95.4%
Solubility of regular Insulin (0.2% phenol + […] m-cresol, pH 6.6, NaCl 50 mM): 26.8%
Solubility of regular Insulin (0.2% phenol + […] m-cresol, pH 6.6, NaCl 80 mM): 8.7%
Solubility of regular Insulin (0.2% phenol + […] m-cresol, pH 6.6, NaCl 110 mM): 6.5%
Solubility of regular Insulin (0.2% phenol + […] m-cresol, pH 6.6, NaCl 140 mM): 5.8%
Solubility of regular Insulin (0.2% phenol + […] m-cresol, pH 6.8, NaCl 50 mM): 38.4%
Solubility of regular Insulin (0.2% phenol + […] m-cresol, pH 6.8, NaCl 80 mM): 17.1%
Solubility of regular Insulin (0.2% phenol + […] m-cresol, pH 6.8, NaCl 140 mM): 6.5%
Solubility of regular Insulin (0.2% phenol + […] m-cresol, pH 7.0, NaCl 50 mM): 100.3%
Solubility of regular Insulin (0.2% phenol + […] m-cresol, pH 7.0, NaCl 80 mM): 35.7%
Solubility of regular Insulin (0.2% phenol + […] m-cresol, pH 7.0, NaCl 110 mM): 17.7%
Solubility of regular Insulin (0.2% phenol + […] m-cresol, pH 7.0, NaCl 140 mM): 11.6%
Solubility of regular Insulin (0.2% phenol + […] m-cresol, pH 7.2, NaCl 80 mM): 92.2%
Solubility of regular Insulin (0.2% phenol + […] m-cresol, pH 7.2, NaCl 110 mM): 37.4%
Solubility of regular Insulin (0.2% phenol + […] m-cresol, pH 7.2, NaCl 140 mM): 18.9%
Solubility of regular Insulin (0.2% phenol + […] m-cresol, pH 7.4, NaCl 80 mM): 99.2%
Solubility of regular Insulin (0.2% phenol + […] m-cresol, pH 7.4, NaCl 110 mM): 87.8%
Solubility of regular Insulin (0.2% phenol + […] m-cresol, pH 7.4, NaCl 140 mM): 40.6%
Solubility of regular Insulin (0.2% phenol + […] m-cresol, pH 7.6, NaCl 80 mM): 99.2%
Solubility of regular Insulin (0.2% phenol + […] m-cresol, pH 7.6, NaCl 110 mM): 98.5%
Solubility of regular Insulin (0.2% phenol + […] m-cresol, pH 7.6, NaCl 140 mM): 82.2%
Solubility of regular Insulin ([…] phenol + […] m-cresol, pH 6.6, NaCl 50 mM): 31.2%
Solubility of regular Insulin ([…] phenol + […] m-cresol, pH 6.6, NaCl 80 mM): 18.6%
Solubility of regular Insulin ([…] phenol + […] m-cresol, pH 6.6, NaCl 140 mM): 12.9%
Solubility of regular Insulin ([…] phenol + […] m-cresol, pH 6.8, NaCl 50 mM): 66.6%
Solubility of regular Insulin ([…] phenol + […] m-cresol, pH 6.8, NaCl 80 mM): 24.9%
Solubility of regular Insulin ([…] phenol + […] m-cresol, pH 7.0, NaCl 50 mM): 96.7%
Solubility of regular Insulin ([…] phenol + […] m-cresol, pH 7.0, NaCl 80 mM): 80.8%
Solubility of regular Insulin ([…] phenol + […] m-cresol, pH 7.0, NaCl 110 mM): 32.9%
Solubility of regular Insulin ([…] phenol + […] m-cresol, pH 7.0, NaCl 140 mM): 17.1%
Solubility of regular Insulin ([…] phenol + […] m-cresol, pH 7.2, NaCl 80 mM): 96.4%
Solubility of regular Insulin ([…] phenol + […] m-cresol, pH 7.2, NaCl 110 mM): 58.7%
Solubility of regular Insulin ([…] phenol + […] m-cresol, pH 7.2, NaCl 140 mM): 33.1%
Solubility of regular Insulin ([…] phenol + […] m-cresol, pH 7.4, NaCl 50 mM): 96.7%
Solubility of regular Insulin ([…] phenol + […] m-cresol, pH 7.4, NaCl 80 mM): 97.3%
Solubility of regular Insulin ([…] phenol + […] m-cresol, pH 7.4, NaCl 110 mM): 94.2%
Solubility of regular Insulin ([…] phenol + […] m-cresol, pH 7.4, NaCl 140 mM): 57.9%
Solubility of regular Insulin ([…] phenol + […] m-cresol, pH 7.6, NaCl 50 mM): 97.2%
Solubility of regular Insulin ([…] phenol + […] m-cresol, pH 7.6, NaCl 80 mM): 97.1%
Solubility of regular Insulin ([…] phenol + […] m-cresol, pH 7.6, NaCl 110 mM): 97.1%
Solubility of regular Insulin ([…] phenol + […] m-cresol, pH 7.6, NaCl 140 mM): 91.7%
